Data as given in US20240417457A1.

Target: FRα covalently bound to a CM5 sensor chip (UniProt P15328)
Experiment: SPR (Biacore T200), FRα amine-coupled to a CM5 chip, 180 sec association then dissociation

Chain of UniProt P15328 (P15328 25-234 limits assumed): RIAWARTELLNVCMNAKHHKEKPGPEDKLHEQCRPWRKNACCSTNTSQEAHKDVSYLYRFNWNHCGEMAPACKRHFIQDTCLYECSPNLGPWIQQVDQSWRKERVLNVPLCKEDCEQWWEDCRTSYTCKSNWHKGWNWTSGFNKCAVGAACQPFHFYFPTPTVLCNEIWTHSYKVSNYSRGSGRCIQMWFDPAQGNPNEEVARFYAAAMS

binding at time 300 sec as percent of the plateau: 75%
B1: Antibody I (ScFv, SEQ. ID. NOs: 9-10) (scFv, part only; not given: linker, domain order, His tag, V domains shown, not shown: another chain or arm of the molecule; small tags and cut ends)
VH: QVQLVQSGSELKKPGASVKVSCKASDYIFTNYDITWVRQAPGQGLEWMGEIDPRSGKSYYNEKFKGKSTLTADKSVSTAYLQISSLKAEDTAVYFCATMYYYGSSPPMDYWGQGTTVTVS
VL: DIQMTQSPSSLSASVGDRVTITCRASQDINNFLNWYQQKPGKAPKLLIYYTSRLHSGVPSRFSGSGSGTDYTFTISSLQPEDIATYFCQQSSTIPRTFGQGTKLEIK
